Results as given in publication PMC8545088.

Tests used:
[1] = molecular target: PorZ from P. gingivalis (P. gingivalis W83); assay: other fluorescence titration; microscale fluorescence (initial fluorescence, Monolith NT.115): 20 nM NT-647-labelled PorZ titrated with PorU (3 nM to 100 μM) in PBS, 25°C, without A-LPS; 1:1 binding model
[2] = molecular target: PorZ from P. gingivalis (P. gingivalis W83); assay: other fluorescence titration; microscale fluorescence (initial fluorescence, Monolith NT.115): 20 nM NT-647-labelled PorZ with 1 × 10^5 EU/ml A-LPS from W83, titrated with PorU (3 nM to 100 μM) in PBS, 25°C; 1:1 binding model

B1: PorU sortase from P. gingivalis, hexahistidine-tagged (enzyme)
chain: QRAMGKTADRSLMASGHWVKIRVDASGVYRLTDEQLRANGFSDPSKVGVFGYGGGVLPEDLSRITTDDLPPVPVLRQGNALYFYAVGPVTWFYNPAKTTMEHTVNTYSTHGYYFLSDAAGAPLQMSQYTGGGASAEALIDYYDELMLHEQELYSPKESGRDLYGESFSAVNTRTVKFPLRGNTRSSGELGTVFSYIAKARSAGGGREMSLSANGILIFSDPFSMTSNEVSNSYLAGKKRRLYRSTPMNSLVNELRLDANYSMTGDAVNLDFIEVATQNDLRYDGAPMHIRRFSNLPVLGGESCRFVISEVPESLVVLQANSSLTASLVPVKTVGDKTIEFVAPPKGQDRRTINTFYAVDLSQASAPEILGAVPNQNLHGEEIPDLIIVSTQALLPEADRLATYRREKNGLKVLVVLQEQVFNEFSGGTPDATAYRLFAKMFYDRWKANAPVGETFPMQMLLFGDGAHDNRKVSVAWQKPYLQQTEFLLTFQAVNSTNVNSYVTDDYFGLLDDQPASVNIGWRNYNMAVGRFPVRTPAEARIAVDKTIRYEEDRESGAWRIRACFAADNGDKHATETSRLIDTVKRYAPAIMPVRAFQDVYPHVIENGLHSIPGAKKKMLETLQSGIILLNYAGHGGPAGWSDEHLLTLNDIHNFNYKHMPIWITATCDFANYDSQTTSAGEEVFLHEKSGTPIMFSTTRVVYNTQNEKINGFMLRRMFEKAKDGRYRTMGEIIRSAKQGMLSTVFPDSINQLSFFLMGDPSVRMNLPTHKVQLTAINGQDPEGQYGTIMLKSLERVALKGKVTDEKGTFDETFSGKVFLTVFDGRKKMTALEEEGNDLSLVYYDYPNVMYAGIAEVKDGLFETSFIVPKDVNYSEHEGRINLYAYNESTKAEAMGVDFSIRVQPGIPDEVTEDNTPPEIISCFLNDSTFRSGDEVNPTPLFMAEVFDLNGINITGSGVGHDITLCIDGRADLTYNLNAYFTSSATDAGVGTILFMIPALAEGDHTARLTVWDIFNNAVHHDFSFRVVDGIAPDVADVILFPNPVRESATFRIFHNRPGSDLNVVVEIYDFTGRLVNSLPVKTYSSSYGEPIEIKWDLTSKYGVKIGNGFYLYRCVVNSPGGQTASMAKKMIVVAQ
- Kd [1]: 3400 nM
- Kd [2]: 700 nM
